Test results reported in US20140087995A1 (published 2014).
Numbered stars: 1 amine (or outer) side, 2 acyl side, 3 side chain; on linkers, the order of the positions; unused ones are H or OH. Bridge positions count the residues as written; N and C are the ends. Side chains are listed from the residue outwards. Ends that are not written are not given here. * marks the point of attachment. C20 diacid = O=C(O)CCCCCCCCCCCCCCCCCCC(=O)*; γGlu = O=C(O)[C@H](CCC(=O)[*:2])N[*:1]; AEEA = NCCOCCOCC(=O)O

T1: human amylin receptor (amylin 3(a) receptor: human calcitonin receptor with RAMP-3) (human, UniProt P30988 25-474; O60896 24-148)
T1 sequence (looked up) 1: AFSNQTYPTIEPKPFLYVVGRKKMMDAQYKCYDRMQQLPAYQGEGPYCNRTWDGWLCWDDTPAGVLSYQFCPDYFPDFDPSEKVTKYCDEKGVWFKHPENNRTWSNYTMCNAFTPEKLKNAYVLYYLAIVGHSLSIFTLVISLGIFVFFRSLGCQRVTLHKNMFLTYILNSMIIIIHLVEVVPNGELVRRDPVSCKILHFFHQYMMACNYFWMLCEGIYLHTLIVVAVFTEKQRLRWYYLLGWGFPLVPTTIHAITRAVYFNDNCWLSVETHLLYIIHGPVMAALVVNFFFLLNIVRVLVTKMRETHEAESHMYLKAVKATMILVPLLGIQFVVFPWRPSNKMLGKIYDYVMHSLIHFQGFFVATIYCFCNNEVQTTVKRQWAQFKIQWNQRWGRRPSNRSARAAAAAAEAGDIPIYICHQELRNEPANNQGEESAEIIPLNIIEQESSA
T1 sequence (looked up) 2: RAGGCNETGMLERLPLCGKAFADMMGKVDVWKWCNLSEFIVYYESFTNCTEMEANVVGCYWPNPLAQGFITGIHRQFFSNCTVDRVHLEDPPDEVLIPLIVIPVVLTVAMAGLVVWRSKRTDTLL

T2: human calcitonin receptor (human, UniProt P30988 25-474)
T2 sequence (looked up): T1 sequence (looked up) 1

B1: N^α1N^α1-[(4S)-4-carboxy-4-(19-carboxynonadecanoylamino)butanoyl]-[Glu14,Arg17,Pro21,Pro27,Glu35]-h-amylin (peptide)
peptide: {C20 diacid-γGlu}-KCNTATCATQRLAEFLRHSSPNFGAIPSSTNVGSETY-NH2
modifications: disulfide 2-7
SMILES: CC[C@H](C)[C@H](NC(=O)[C@H](C)NC(=O)CNC(=O)[C@H](Cc1ccccc1)NC(=O)[C@H](CC(N)=O)NC(=O)[C@@H]1CCCN1C(=O)[C@H](CO)NC(=O)[C@H](CO)NC(=O)[C@H](Cc1c[nH]cn1)NC(=O)[C@H](CCCNC(=N)N)NC(=O)[C@H](CC(C)C)NC(=O)[C@H](Cc1ccccc1)NC(=O)[C@H](CCC(=O)O)NC(=O)[C@H](C)NC(=O)[C@H](CC(C)C)NC(=O)[C@H](CCCNC(=N)N)NC(=O)[C@H](CCC(N)=O)NC(=O)[C@@H](NC(=O)[C@H](C)NC(=O)[C@@H]1CSSC[C@H](NC(=O)[C@H](CCCCN)NC(=O)CC[C@H](NC(=O)CCCCCCCCCCCCCCCCCCC(=O)O)C(=O)O)C(=O)N[C@@H](CC(N)=O)C(=O)N[C@@H]([C@@H](C)O)C(=O)N[C@@H](C)C(=O)N[C@@H]([C@@H](C)O)C(=O)N1)[C@@H](C)O)C(=O)N1CCC[C@H]1C(=O)N[C@@H](CO)C(=O)N[C@@H](CO)C(=O)N[C@H](C(=O)N[C@@H](CC(N)=O)C(=O)N[C@H](C(=O)NCC(=O)N[C@@H](CO)C(=O)N[C@@H](CCC(=O)O)C(=O)N[C@H](C(=O)N[C@@H](Cc1ccc(O)cc1)C(N)=O)[C@@H](C)O)C(C)C)[C@@H](C)O
notes: also called compound 22
B2: N^ε1-[(4S)-4-carboxy-4-(19-carboxynonadecanoylamino)butanoyl]-[Arg17,Pro21,Pro27,Glu35]-h-amylin (peptide)
peptide: K([γGlu-C20 diacid])CNTATCATQRLANFLRHSSPNFGAIPSSTNVGSETY-NH2
modifications: disulfide 2-7; N-terminus assumed
SMILES: CC[C@H](C)[C@H](NC(=O)[C@H](C)NC(=O)CNC(=O)[C@H](Cc1ccccc1)NC(=O)[C@H](CC(N)=O)NC(=O)[C@@H]1CCCN1C(=O)[C@H](CO)NC(=O)[C@H](CO)NC(=O)[C@H](Cc1c[nH]cn1)NC(=O)[C@H](CCCNC(=N)N)NC(=O)[C@H](CC(C)C)NC(=O)[C@H](Cc1ccccc1)NC(=O)[C@H](CC(N)=O)NC(=O)[C@H](C)NC(=O)[C@H](CC(C)C)NC(=O)[C@H](CCCNC(=N)N)NC(=O)[C@H](CCC(N)=O)NC(=O)[C@@H](NC(=O)[C@H](C)NC(=O)[C@@H]1CSSC[C@H](NC(=O)[C@@H](N)CCCCNC(=O)CC[C@H](NC(=O)CCCCCCCCCCCCCCCCCCC(=O)O)C(=O)O)C(=O)N[C@@H](CC(N)=O)C(=O)N[C@@H]([C@@H](C)O)C(=O)N[C@@H](C)C(=O)N[C@@H]([C@@H](C)O)C(=O)N1)[C@@H](C)O)C(=O)N1CCC[C@H]1C(=O)N[C@@H](CO)C(=O)N[C@@H](CO)C(=O)N[C@H](C(=O)N[C@@H](CC(N)=O)C(=O)N[C@H](C(=O)NCC(=O)N[C@@H](CO)C(=O)N[C@@H](CCC(=O)O)C(=O)N[C@H](C(=O)N[C@@H](Cc1ccc(O)cc1)C(N)=O)[C@@H](C)O)C(C)C)[C@@H](C)O
notes: also called compound 27
B3: N^ε1-[2-[2-[2-[[(4S)-4-carboxy-4-(19-carboxynonadecanoylamino)butanoyl]amino]ethoxy]ethoxy]acetyl]-[Arg17,Pro21,Pro27,Glu35]-h-amylin (peptide)
peptide: K([AEEA-γGlu-C20 diacid])CNTATCATQRLANFLRHSSPNFGAIPSSTNVGSETY-NH2
modifications: disulfide 2-7; N-terminus assumed
SMILES: CC[C@H](C)[C@H](NC(=O)[C@H](C)NC(=O)CNC(=O)[C@H](Cc1ccccc1)NC(=O)[C@H](CC(N)=O)NC(=O)[C@@H]1CCCN1C(=O)[C@H](CO)NC(=O)[C@H](CO)NC(=O)[C@H](Cc1c[nH]cn1)NC(=O)[C@H](CCCNC(=N)N)NC(=O)[C@H](CC(C)C)NC(=O)[C@H](Cc1ccccc1)NC(=O)[C@H](CC(N)=O)NC(=O)[C@H](C)NC(=O)[C@H](CC(C)C)NC(=O)[C@H](CCCNC(=N)N)NC(=O)[C@H](CCC(N)=O)NC(=O)[C@@H](NC(=O)[C@H](C)NC(=O)[C@@H]1CSSC[C@H](NC(=O)[C@@H](N)CCCCNC(=O)COCCOCCNC(=O)CC[C@H](NC(=O)CCCCCCCCCCCCCCCCCCC(=O)O)C(=O)O)C(=O)N[C@@H](CC(N)=O)C(=O)N[C@@H]([C@@H](C)O)C(=O)N[C@@H](C)C(=O)N[C@@H]([C@@H](C)O)C(=O)N1)[C@@H](C)O)C(=O)N1CCC[C@H]1C(=O)N[C@@H](CO)C(=O)N[C@@H](CO)C(=O)N[C@H](C(=O)N[C@@H](CC(N)=O)C(=O)N[C@H](C(=O)NCC(=O)N[C@@H](CO)C(=O)N[C@@H](CCC(=O)O)C(=O)N[C@H](C(=O)N[C@@H](Cc1ccc(O)cc1)C(N)=O)[C@@H](C)O)C(C)C)[C@@H](C)O
notes: also called compound 26
B4: N^ε1-[(4S)-4-carboxy-4-[[(4S)-4-carboxy-4-(19-carboxynonadecanoylamino)butanoyl]amino]butanoyl]-[Asp14,Arg17,Pro21,Pro27,Asp35]-h-amylin (peptide)
peptide: K([γGlu-γGlu-C20 diacid])CNTATCATQRLADFLRHSSPNFGAIPSSTNVGSDTY-NH2
modifications: disulfide 2-7; N-terminus assumed
SMILES: CC[C@H](C)[C@H](NC(=O)[C@H](C)NC(=O)CNC(=O)[C@H](Cc1ccccc1)NC(=O)[C@H](CC(N)=O)NC(=O)[C@@H]1CCCN1C(=O)[C@H](CO)NC(=O)[C@H](CO)NC(=O)[C@H](Cc1c[nH]cn1)NC(=O)[C@H](CCCNC(=N)N)NC(=O)[C@H](CC(C)C)NC(=O)[C@H](Cc1ccccc1)NC(=O)[C@H](CC(=O)O)NC(=O)[C@H](C)NC(=O)[C@H](CC(C)C)NC(=O)[C@H](CCCNC(=N)N)NC(=O)[C@H](CCC(N)=O)NC(=O)[C@@H](NC(=O)[C@H](C)NC(=O)[C@@H]1CSSC[C@H](NC(=O)[C@@H](N)CCCCNC(=O)CC[C@H](NC(=O)CC[C@H](NC(=O)CCCCCCCCCCCCCCCCCCC(=O)O)C(=O)O)C(=O)O)C(=O)N[C@@H](CC(N)=O)C(=O)N[C@@H]([C@@H](C)O)C(=O)N[C@@H](C)C(=O)N[C@@H]([C@@H](C)O)C(=O)N1)[C@@H](C)O)C(=O)N1CCC[C@H]1C(=O)N[C@@H](CO)C(=O)N[C@@H](CO)C(=O)N[C@H](C(=O)N[C@@H](CC(N)=O)C(=O)N[C@H](C(=O)NCC(=O)N[C@@H](CO)C(=O)N[C@@H](CC(=O)O)C(=O)N[C@H](C(=O)N[C@@H](Cc1ccc(O)cc1)C(N)=O)[C@@H](C)O)C(C)C)[C@@H](C)O
notes: also called compound 2
B5: N^ε1-[(4S)-4-carboxy-4-(19-carboxynonadecanoylamino)butanoyl]-[Arg17,Pro21,Pro27,Lys35]-h-amylin (peptide)
peptide: K([γGlu-C20 diacid])CNTATCATQRLANFLRHSSPNFGAIPSSTNVGSKTY-NH2
modifications: disulfide 2-7; N-terminus assumed
SMILES: CC[C@H](C)[C@H](NC(=O)[C@H](C)NC(=O)CNC(=O)[C@H](Cc1ccccc1)NC(=O)[C@H](CC(N)=O)NC(=O)[C@@H]1CCCN1C(=O)[C@H](CO)NC(=O)[C@H](CO)NC(=O)[C@H](Cc1c[nH]cn1)NC(=O)[C@H](CCCNC(=N)N)NC(=O)[C@H](CC(C)C)NC(=O)[C@H](Cc1ccccc1)NC(=O)[C@H](CC(N)=O)NC(=O)[C@H](C)NC(=O)[C@H](CC(C)C)NC(=O)[C@H](CCCNC(=N)N)NC(=O)[C@H](CCC(N)=O)NC(=O)[C@@H](NC(=O)[C@H](C)NC(=O)[C@@H]1CSSC[C@H](NC(=O)[C@@H](N)CCCCNC(=O)CC[C@H](NC(=O)CCCCCCCCCCCCCCCCCCC(=O)O)C(=O)O)C(=O)N[C@@H](CC(N)=O)C(=O)N[C@@H]([C@@H](C)O)C(=O)N[C@@H](C)C(=O)N[C@@H]([C@@H](C)O)C(=O)N1)[C@@H](C)O)C(=O)N1CCC[C@H]1C(=O)N[C@@H](CO)C(=O)N[C@@H](CO)C(=O)N[C@H](C(=O)N[C@@H](CC(N)=O)C(=O)N[C@H](C(=O)NCC(=O)N[C@@H](CO)C(=O)N[C@@H](CCCCN)C(=O)N[C@H](C(=O)N[C@@H](Cc1ccc(O)cc1)C(N)=O)[C@@H](C)O)C(C)C)[C@@H](C)O
notes: also called compound 35
B6: N^ε1-[2-[2-[2-[[2-[2-[2-[[(4S)-4-carboxy-4-(19-carboxynonadecanoylamino)butanoyl]amino]ethoxy]ethoxy]acetyl]amino]ethoxy]ethoxy]acetyl]-[Arg17,Pro21,Pro27,Glu35 … (peptide)
peptide: K([AEEA-AEEA-γGlu-C20 diacid])CNTATCATQRLANFLRHSSPNFGAIPSSTNVGSETY-NH2
modifications: disulfide 2-7; N-terminus assumed
SMILES: CC[C@H](C)[C@H](NC(=O)[C@H](C)NC(=O)CNC(=O)[C@H](Cc1ccccc1)NC(=O)[C@H](CC(N)=O)NC(=O)[C@@H]1CCCN1C(=O)[C@H](CO)NC(=O)[C@H](CO)NC(=O)[C@H](Cc1c[nH]cn1)NC(=O)[C@H](CCCNC(=N)N)NC(=O)[C@H](CC(C)C)NC(=O)[C@H](Cc1ccccc1)NC(=O)[C@H](CC(N)=O)NC(=O)[C@H](C)NC(=O)[C@H](CC(C)C)NC(=O)[C@H](CCCNC(=N)N)NC(=O)[C@H](CCC(N)=O)NC(=O)[C@@H](NC(=O)[C@H](C)NC(=O)[C@@H]1CSSC[C@H](NC(=O)[C@@H](N)CCCCNC(=O)COCCOCCNC(=O)COCCOCCNC(=O)CC[C@H](NC(=O)CCCCCCCCCCCCCCCCCCC(=O)O)C(=O)O)C(=O)N[C@@H](CC(N)=O)C(=O)N[C@@H]([C@@H](C)O)C(=O)N[C@@H](C)C(=O)N[C@@H]([C@@H](C)O)C(=O)N1)[C@@H](C)O)C(=O)N1CCC[C@H]1C(=O)N[C@@H](CO)C(=O)N[C@@H](CO)C(=O)N[C@H](C(=O)N[C@@H](CC(N)=O)C(=O)N[C@H](C(=O)NCC(=O)N[C@@H](CO)C(=O)N[C@@H](CCC(=O)O)C(=O)N[C@H](C(=O)N[C@@H](Cc1ccc(O)cc1)C(N)=O)[C@@H](C)O)C(C)C)[C@@H](C)O
notes: also called compound 25

target: T1, human amylin receptor (amylin 3(a) …); assay: cell-based or functional assay

hAmylin-R funct. EC50 [pM]	Binder
270	B1
133	B2
212	B3
182	B4
364	B5
217	B6

target: T2, human calcitonin receptor; assay: cell-based or functional assay

Ratio hCT/hAmylin funct.	hCTR funct. EC50 [nM]	Binder
3.8	1.03	B1
22.6	3	B2
29.9	6.34	B3
16.4	3	B4
15	5.46	B5
46.2	10	B6
